Reference: patent US20200291126A1 (EUTILEX, published 2020)
Changes are numbered by the printed parent chain.

T1: V-Set And Immunoglobulin Domain Containing 4 (VSIG4) (human, UniProt Q9Y279 20-283, limits assumed)
T1 construct: also called CRIg; Z39Ig
T1 sequence (looked up): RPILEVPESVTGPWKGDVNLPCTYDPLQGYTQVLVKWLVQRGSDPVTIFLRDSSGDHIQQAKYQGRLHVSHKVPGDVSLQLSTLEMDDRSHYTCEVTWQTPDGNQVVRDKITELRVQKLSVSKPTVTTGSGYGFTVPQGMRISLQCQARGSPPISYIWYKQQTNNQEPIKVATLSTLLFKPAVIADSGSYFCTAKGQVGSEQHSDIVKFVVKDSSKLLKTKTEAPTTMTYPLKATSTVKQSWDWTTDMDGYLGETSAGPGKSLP

B1: EU103.2 antibody (antibody, V domains shown)
VH: QVQLQESGPGLVKPSQTLSLTCSFSGISLTTSGMGVGWIRQPPGKGLEWLADIFWDDNKYYNPSLKSRVTISVDTSKNQFSLKLSSVTAADTAVYYCVRVYYKNDGYFDVWGQGTLVTVSS
VL: EIVMTQSPATLSVSPGERATLSCRASKSVTTSGYSFMHWYQQKPGQAPRLLIYLASNLEPGIPARFSGSGSGTEFTLTISSLQSEDFAVYYCQHSRELPYTFGQGTKLEIK
notes: also called humanized anti-VSIG4 antibody generated from mouse anti-VSIG4 antibody mu6H8
B2: A1 antibody (EU103_T01.01) (antibody, V domains shown)
VH: QVTLKESGPTLVKPTQTLTLTCTFSGISLTTSGMGVGWIRQPPGKALEWLADIFWDDNKYYNPSLKSRLTITKDTSKNQVVLTMTNMDPVDTATYYCVRVYYKNDGYFDVWGKGTTVTVSS
VL: DIVLTQSPLSLPVTLGQPASISCRASKSVTTSGYSFMHWYQQRPGQSPRLLIYLASNLEPGVPDRFSGSGSGTDFTLKISRVEAEDVGVYYCQQSGELPYTFGQGTKLEIK
B3: A2.3 antibody (EU103_T01.02S) (antibody, V domains shown)
VH: B2 VH with K5V, T15G, S67G, V81Y
VL: B2 VL with S80F
notes: Generated from A2
B4: A1.3 antibody (EU103_T01.01S) (antibody, V domains shown)
VH: B2 VH with K5V, T15G, S67G, V81Y
VL: B2 VL
notes: Generated from A1
B5: A2 antibody (EU103_T01.02) (antibody, V domains shown)
VH: B2 VH
VL: B2 VL with S80F

Legend:
[1] = target: T1, V-Set And Immunoglobulin Domain …; assay: kinetic affinity measurement; method not stated at the table (SPR named for EU103.2 in FIG. 4B)
[2] = target: T1, V-Set And Immunoglobulin Domain …; assay: kinetic affinity measurement; method not stated

Row | Binder | Kd [1] [nM] | koff [1] [s⁻¹] | kon [1] [M⁻¹ s⁻¹] | Kd [2] [nM] | koff [2] [s⁻¹] | kon [2] [M⁻¹ s⁻¹]
1 | B1 | 71.6 | 0.0131 | 183000 |  |  | 
2 | B2 |  |  |  | 8.69 | 0.00328 | 378000
3 | B3 |  |  |  | 7.64 | 0.00308 | 404000
4 | B4 |  |  |  | 7.95 | 0.0032 | 402000
5 | B5 |  |  |  | 8.23 | 0.00296 | 360000
